Measurements taken from publication PMC8130932 (PLoS Pathogens, 2021).
Numbering of substitutions follows the chain as printed.

B1: FD 11A (antibody, V domains shown)
VH: EVQLVESGGGVVQPGRSLRLSCAASGFTFSSYGMHWVRQAPGKGLEWVAVIWYDGSNKYYADSVKGRFTISRDNSKNTLYLQMNSLRAEDTAVYYCAKGPDILTGYYNYYYYGMDVWGQGTMVTVSS
VL: QSVLTQPPSVSGAPGQRVTISCTGSSSNIGAGYDVHWYQQLPGTAPKLLIYGNSNRPSGVPDRFSGSKSGTSASLAITGLQAEDEADYYCQSYDSSLSGFYVVFGGGTKLTVL
notes: source: HEK293T, transfected; culture supernatant or purified
B2: FI 1C (antibody, V domains shown)
VH: EVQLVESGGGLVKPGGSLRLSCAASGFTFSDYYMSWIRQAPGKGLEWVSYISSSGSTIYYADSVKGRFTISRDNAKNSLYLQMNSLRAEDTAVYYCARRSNRFLIAFDIWGQGTMVTVSS
VL: QSALTQPASVSGSPGQTITISCTGTSSDVGGYNYVSWYQQHPGKAPKLMIYEVSNRPSGVSNRFSGSKSGNTASLTISGLQAEDEADYYCSSYTSSSTLVVFGGGTKLTVP
notes: as for B1
B3: FD 10A (antibody, V domains shown)
VH: EVQLVESGGGLVQPGGSLRLSCAASGFTFSSYWMHWVRQAPGKGLVWVSRINSDGSSTSYADSVKGRFTISRDNAKNTLYLQMNSLRAEDTAVYYCANMAFDIWGQGTMVTVSS
VL: not shown
notes: as for B1
B4: FJ 10B (antibody, V domains shown)
VH: QVQLVQSGAEVKKPGESLRISCKGSGYSFTSYWISWVRQMPGKGLEWMGRIDPSDSYTNYSPSFQGHVTISADKSISTAYLQWSSLKASDTAMYYCARLDPRYGPDYYGMDVWGQGTTVTVSS
VL: AIRMTQSPSSLSASVGDRVTITCRASQSISSYLNWYQQKPGKAPKLLIHAASSLQSGVPSRFSGSGSGTDFTLTMSSLQPEDFATYYCQQSYSTPLTFGGGTKVEIR
notes: as for B1
B5: FD 7D (antibody, V domains shown)
VH: EVQLVESGAEVKKPGESLRISCKGSGYSFTSYWISWVRQMPGKGLEWMGRIDPSDSYTNYSPSFQGHVTISADKSISTAYLQWSSLKASDTAMYYCARHSDCSSTSCYFVDAFDIWGQGTMVTVSS
VL: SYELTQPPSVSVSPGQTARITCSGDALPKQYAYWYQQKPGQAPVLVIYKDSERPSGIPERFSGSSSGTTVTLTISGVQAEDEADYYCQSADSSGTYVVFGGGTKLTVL
notes: as for B1
B6: FN 12A (antibody, V domains shown)
VH: QVQLVQSGAEVKKPGSSVKVSCKASGGTFSSYAISWVRQAPGQGLEWMGRIIPILGIANYAQKFQGRVTITADKSTSTAYMELSSLRSEDTAVYYCARSGCSSTSCPSNLYYYYYGMDVWGQGTTVTVSS
VL: QSVLTQPPSVSAAPGQKVTISCSGSSSNIGNNYVSWYQQLPGTAPKLLIYDNNKRPSGIPDRFSGSKSGTSATLGITGLQTGDEADYYCGTWDSSLSALVFGGGTKLTVL
notes: as for B1
B7: FD 11C (antibody, V domains shown)
VH: EVQLLESGPGLVKPSETLSLTCTVSGGSISSSSYYWGWIRQPPGKGLEWIGSIYYSGSTYYNPSLKSRVTISVDTSKNQFSLKLSSVTAADTAVYYCAREYYYGSETKKYYYYYGMDVWGQGTTVTVSS
VL: not shown
notes: as for B1
B8: FI 3A (antibody, V domains shown)
VH: EVQLLESGGGLIQPGGSLRLSCAASGFTVSSNYMSWVRQAPGKGLEWVSVIYSGGSTYYADSVKGRFTISRDNSKNTLYLQMNSLRAEDTAVYYCARDHVRPGMNIWGQGTMVTVSS
VL: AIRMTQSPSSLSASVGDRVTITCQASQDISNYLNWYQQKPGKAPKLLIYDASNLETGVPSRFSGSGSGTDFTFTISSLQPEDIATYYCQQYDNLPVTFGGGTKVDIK
notes: as for B1
B9: FD 11E (antibody, V domains shown)
VH: EVQLVESGGGLVKPGGSLRLSCAASGFTFSSYSMNWVRQAPGKGLEWVSSISSSSSYIYYADSVKGRFTISRDNAKNSLYLQMNSLRAEDTAVYYCASLAAAGPETYYYYGMDVWGQGTMVTVSS
VL: not shown
notes: as for B1
B10: FD 1E (antibody, V domains shown)
VH: B9 VH with V5L
VL: not shown
notes: as for B1
B11: FB 1E (antibody, V domains shown)
VH: EVQLVESGAEVKKPGESLKISCQGSGYRFNSYWIAWVRQMPGKGLEWMGSIFPTDSDIRYNPSFQGQVTISADKSISIAYLQWSSLKASDTAIYYCARHWASMVRGVIRASHYYGMDVWGQGTTVTVSS
VL: QSVLTQPPSASGSPGQSVTISCSGASSDIGDYNYVSWYQQLPGKAPKLLIYEVTKRPSGVPDRFSGSKSGNTASLTVSGLQADDEADYYCSSYAFGGSDIRVFGGGTKLAVL
notes: as for B1
B12: FB 9D (antibody, V domains shown)
VH: B11 VH with E1Q, I58V, I78F
VL: B11 VL with S2P, D31K, I100T, A110T
notes: as for B1
B13: FJ 4E (antibody, V domains shown)
VH: QVQLVESGPGLVKPSETLSLTCSVSGGSISSGTYYWSWIRQQPGKGLEWIGYIYNTGRPYYNPFLKSRITISVDSSKNQFSLKLTSVTAADTAVYYCARDEYDSSDSGIQGHWFDPWGQGTLVTVSS
VL: AIRMTQSPSSLSASVGDRVTITCRTSQNINSFLNWYQQKPGKGPNLLIYGAFTLQSGVPSRFSGSGSGTDFTLTISSLQPEDFATYFCQQSYSTPWTFGQGTKVEIK
notes: as for B1
B14: FD 5D (antibody, V domains shown)
VH: EVQLVESGGGLVQPGGSLRLSCAASGFTFSSYSMNWVRQAPGKGLEWVSYISSSSSTIYYADPVKGRFTISRDNAKNSLYLQMNSLRAEDTAVYYCASPGGITAAGTSVLFGYYGMDVWGQGTMVTVSS
VL: not shown
notes: as for B1
B15: FG 12C (antibody, V domains shown)
VH: EVQLVESGGGLVQPGRSLRLSCAASGFTFDDYAMHWVRQAPGKGLEWVSGISWNSGSIGYADSVKGRFTISRDNAKNSLYLQMNSLRAEDTALYYCAKDMRVHDYGDYYFDYWGQGTLVTVSS
VL: SYELTQPPSVSVAPGKTARITCGGNNIGSKSVHWYQQKPGQAPVLVIYYDSDRPSGIPERFSGSNSGNTATLTISRVEAGDEADYYCQVWDSSSDHPVFGGGTKLTVL
notes: as for B1
B16: FN 8C (antibody, V domains shown)
VH: QVQLVESGGGVVQPGRSLRLSCAASGFTFSSYGMHWVRQAPGKGLEWVAVISYDGSNKYYADTVKGRFTISRDNSKNTLYLQMNSLRAEDTAVYYCARERTYYDILTGYRHYYGMDVWGQGTTVTVSS
VL: B15 VL with K16Q, I47V, Y49D, P97W
notes: as for B1
B17: FM 1A (antibody, V domains shown)
VH: EVQLLESGGGVVQPGRSLRLSCAASGFTFSSYGMHWVRQAPGKGLEWVAVIWYDGSNKYYADSVKGRFTISRDNSKNTLYLQMNSLRAEDTAVYYCAREGAVGATRGFDYWGQGTLVTVSS
VL: B15 VL with K16Q, I47V, Y49D, H96Q, P97G
notes: as for B1
B18: FD 8B (antibody, V domains shown)
VH: EVQLLESGAEVKKPGASVKVSCKVSGYTLTELSMHWVRQAPGKGLEWMGGFDPEDGETIYAQKFQGRVTMTEDTSTDTAYMELSSLRSEDTAVYYCATAAAINCSSTSCYYYYYYYGMDVWGQGTTVTVSS
VL: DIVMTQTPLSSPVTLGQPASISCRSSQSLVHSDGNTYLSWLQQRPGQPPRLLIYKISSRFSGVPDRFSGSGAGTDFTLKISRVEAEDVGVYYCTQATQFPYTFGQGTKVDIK
notes: as for B1
B19: FJ 1C (antibody, V domains shown)
VH: QVQLQESGPGLVKPSETLSLTCTVSGYSISSGYYWGWIRQPPGKGLEWIGSIYHSGSTYYNPSLKSRVTISVDTSKNQFSLKLSSVTAADTAVYYCARDKALLWFGELFTNLFDYWGQGTLVTVSS
VL: QSALTQPASVSGSPGQSITISCTGTSSDVGGYNYVSWYQQHPGKAPKLMIYEVSNRPSGVSNRFSGSKSGNTASLTISGLQAEDEANYYCSSYTSSSTLVFGGGTKLTVL
notes: as for B1
B20: EW 9C (antibody, V domains shown)
VH: EVQLVESGGGVVQPGASLRLSCVASGFTFNNFGFHWVRQAPGKGLEWLAVISYEGSKTYYAESLKGRFTISRDTSKNTVYLQMNSLRAEDTAVYYCARATSIFWFGEGRNWFDPWGQGTMVTVSS
VL: EIVLTQSPGTVSLSAGERATLSCRASQNVGTDLAWYVQRPGQAPRLLIYDTSNKATGIPARFSGRGSGTDFTLTIDSLEPEDFAVYYCQQRSNWPLTFGGGTKVEIR
notes: as for B1
B21: FD 5E (antibody, V domains shown)
VH: EVQLVESGGVVVQPGGSLRLSCAASGFTFDDYAMHWVRQAPGKGLEWVSLISWDGGSTYYADSVKGRFTISRDNSKNSLYLQMNSLRAEDTALYYCAKDSVRFRYYYGMDVWGQGTTVTVSS
VL: EIVLTQSPATLSLSPGERATLSCRASQSVSSYLAWYQQKPGQAPRLLIYDASNRATGIPARFSGSGSGTDFTLTISSLEPEDFAVYYCQQRSNWPLTFGPGTKVDIK
notes: as for B1
B22: FD 1D (antibody, V domains shown)
VH: EVQLVESGGGVVQPGRSLRLSCAASGFTFSSYAMHWVRQAPGKGLEWVAVISYDGSNKYYADSVKGRFTISRDNSKNTLYLQMNSLRAEDTAVYYCARAGSGSYLNWFDPWGQGTLVTVSS
VL: B21 VL with L96I, P100Q, K103R, V104L, D105E
notes: as for B1
B23: EW 9B (antibody, V domains shown)
VH: EVQLVQSGAEVKKPGASVKVSCKASGYTFTSYYMHWVRQAPGQGLEWMGIINPSGGSTSYAQKFQGRVTMTRDTSTSTVYMELSSLRSEDTAVYYCAREDGVVPAANLMISLEDYYYYGMDVWGQGTTVTVSS
VL: B21 VL with P100G
notes: as for B1
B24: FD 7C (antibody, V domains shown)
VH: QLQLQESGPGLVKPSETLSLTCTVSGGSISSYYWSWIRQPPGKGLEWIGYIYYSGSTNYNPSLKSRVTISVDTSKNQFSLKLSSVTAADTAVYYCARDYRFGELFGRFAWFDPWGQGTLVTVSS
VL: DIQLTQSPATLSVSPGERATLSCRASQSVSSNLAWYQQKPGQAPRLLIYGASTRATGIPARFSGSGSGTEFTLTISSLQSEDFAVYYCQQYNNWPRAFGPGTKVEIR
notes: as for B1

Legend:
[1] = biological target: T1, SARS-CoV-2 spike glycoprotein S1+S2 extracellular domain (SARS-CoV-2, reference sequence, UniProt P0DTC2); experiment: ELISA
T1 construct: also called full-length spike glycoprotein ectodomain

[2] = biological target: T2, SARS-CoV-2 spike glycoprotein, full-length, prefusion-stabilised, on MDCK-SIAT1 cells (SARS-CoV-2, reference sequence, UniProt P0DTC2, 986KV987 to 986PP987 | 682RRAR685 to 682GSAG685); experiment: flow cytometry on cells; conditions: one partner purified
T2 construct: also called MDCK-Spike

Row | Binder | OD450 [1] | binding result [2]
1 | B1 | 1.64 OD450 | binds
2 | B2 | 1.88 OD450 | binds
3 | B3 | 1.78 OD450 | –
4 | B4 | 1.48 OD450 | –
5 | B5 | 1.44 OD450 | –
6 | B6 | 2.24 OD450 | –
7 | B7 | 1.2 OD450 | binds
8 | B8 | 1.6 OD450 | binds
9 | B9 | 1.45 OD450 | binds
10 | B10 | 1.45 OD450 | binds
11 | B11 | 1.4 OD450 | binds
12 | B12 | 1.43 OD450 | binds
13 | B13 | 0.26 OD450 | –
14 | B14 | 1.83 OD450 | –
15 | B15 | 1.74 OD450 | –
16 | B16 | 0.54 OD450 | –
17 | B17 | 0.25 OD450 | –
18 | B18 | 1.1 OD450 | –
19 | B19 | 1.61 OD450 | –
20 | B20 | 1.22 OD450 | binds
21 | B21 | 0.34 OD450 | binds
22 | B22 | 0.4 OD450 | –
23 | B23 | 0.22 OD450 | –
24 | B24 | 1.9 OD450 | binds
